The source of these data is paper PMC5387307, “Diversification of the kinetic properties of yeast NADP‐glutamate‐dehydrogenase isozymes proceeds independently of their evolutionary origin” (MicrobiologyOpen, 2016).

Broadly, the kcat is the maximal rate divided by the concentration of active sites.

Read-outs that look alike come from different tables or passages of the source.

In one data set the test system is T1, LkGdh1.
T1 construct: gene GDH1; full-length ORF in pET-28a(+), His-tagged, expressed in E. coli BL21, Ni-NTA purified; monomer 54 kD apparent; glutamate IC50: native enzyme in WT extract
Briefly: NADPH absorbance at […] nm, reductive amination. The format is biochemical, Lachancea kluyveri. The settings on record: 100 mmol/L Tris pH 7.5, 30°C.

Substrate in data set [1]: O=C(O)CCC(=O)C(=O)O
Briefly: purified protein. The format is biochemical, Saccharomyces cerevisiae. The settings on record: 250 μmol/L NADPH, 100 mmol/L ammonium chloride, 100 mmol/L Tris pH 7.5, 30°C.

Substrate in data set [2]: NC(=O)C1=CN([C@@H]2O[C@H](COP(=O)(O)OP(=O)(O)OC[C@H]3O[C@@H](n4cnc5c(N)ncnc54)[C@H](OP(=O)(O)O)[C@@H]3O)[C@@H](O)[C@H]2O)C=CC1
Kind of data set: purified protein. The format is biochemical, Saccharomyces cerevisiae. The settings on record: 8 mmol/L α-KG, 100 mmol/L ammonium chloride, 100 mmol/L Tris pH 7.5, 30°C.

Substrate in data set [3]: N
Briefly: purified protein. The settings on record: 8 mmol/L α-KG, 250 μmol/L NADPH, 100 mmol/L Tris pH 7.5, 30°C.

In the case of `NC(=O)C1=CN([C@@H]2O[C@H](COP(=O)(O)OP(=O)(O)OC[C@H]3O[C@@H](n4cnc5c(N)ncnc54)[C@H](OP(=O)(O)O)[C@@H]3O)[C@@H](O)[C@H]2O)C=CC1` [NADPH], the Km with LkGdh1 (8 mmol/L α-KG, 100 mmol/L ammonium chloride, read-out: pH 7.5 / K m-NADPH) came to 46 µM.
With `N` [NH4+], in the data set with LkGdh1 (8 mmol/L α-KG, 250 μmol/L NADPH, read-out: pH 7.5 / K m-NH4+), the Km is 7400 µM.
For `O=C(O)CCC(=O)C(=O)O` [α-KG], the Km in the data set with LkGdh1 (250 μmol/L NADPH, 100 mmol/L ammonium chloride, read-out: pH 7.5 / K m-α-KG) worked out at 460 µM.

B1: ScGdh3 (Saccharomyces cerevisiae S288C) (protein)
chain: MTSEPEFQQAYDEIVSSVEDSKIFEKFPQYKKVLPIVSVPERIIQFRVTWENDNGEQEVAQGYRVQFNSAKGPYKGGLRFHPSVNLSILKFLGFEQIFKNALTGLDMGGGKGGLCVDLKGKSDNEIRRICYAFMRELSRHIGKDTDVPAGDIGVGGREIGYLFGAYRSYKNSWEGVLTGKGLNWGGSLIRPEATGFGLVYYTQAMIDYATNGKESFEGKRVTISGSGNVAQYAALKVIELGGIVVSLSDSKGCIISETGITSEQIHDIASAKIRFKSLEEIVDEYSTFSESKMKYVAGARPWTHVSNVDIALPCATQNEVSGDEAKALVASGVKFVAEGANMGSTPEAISVFETARSTATNAKDAVWFGPPKAANLGGVAVSGLEMAQNSQKVTWTAERVDQELKKIMINCFNDCIQAAQEYSTEKNTNTLPSLVKGANIASFVMVADAMLDQGDVF
notes: full-length ORF in pET-28a(+), His-tagged, expressed in E. coli BL21, Ni-NTA purified; monomer 55 kD apparent; glutamate IC50: native enzyme in Scgdh1 deletion strain extract
B1: the Km in the data set “purified protein [1]” is 0.4 mmol/L; in the data set “purified protein [2]”, 42 µmol/L; in the data set “purified protein [3]” it was 6.9 mmol/L. The kcat in “purified protein [1]”, in the data set “purified protein [2]” and in the data set “purified protein [3]” was 14 s⁻¹ throughout.

B2: ScGdh1 (Saccharomyces cerevisiae S288C) (protein)
chain: SEPEFQQAYEEVVSSLEDSTLFEQHPEYRKVLPIVSVPERIIQFRVTWENDKGEQEVAQGYRVQYNSAKGPYKGGLRFHPSVNLSILKFLGFEQIFKNSLTGLDMGGGKGGLCVDLKGRSNNEIRRICYAFMRELSRHIGQDTDVPAGDIGVGGREIGYLFGAYRSYKNSWEGVLTGKGLNWGGSLIRPEATGYGLVYYTQAMIDYATNGKESFEGKRVTISGSGNVAQYAALKVIELGGTVVSLSDSKGCIISETGITSEQVADISSAKVNFKSLEQIVNEYSTFSENKVQYIAGARPWTHVQKVDIALPCATQNEVSGEEAKALVAQGVKFIAEGSNMGSTPEAIAVFETARSTATGPSEAVWYGPPKAANLGGVAVSGLEMAQNSQRITWTSERVDQELKRIMINCFNECIDYAKKYTKDGKVLPSLVKGANIASFIKVSDAMFDQGDVF
notes: full-length ORF in pET-28a(+), His-tagged, expressed in E. coli BL21, Ni-NTA purified; monomer 53 kD apparent
For B2, the values for the Km in the data set “purified protein [1]”, in “purified protein [2]” and in “purified protein [3]” were 0.37 mmol/L, 45 µmol/L and 8.6 mmol/L, respectively. In addition, the kcat in the data set “purified protein [1]”, in the data set “purified protein [2]” and in the data set “purified protein [3]” was 13 s⁻¹ in each case.
